Results published in patent publication US20210147523A1 (TEIJIN PHARMA, published 2021).

Target: T1, human SPNS2 L196A mutant (human, UniProt Q8IVW8 1-549)
T1 sequence: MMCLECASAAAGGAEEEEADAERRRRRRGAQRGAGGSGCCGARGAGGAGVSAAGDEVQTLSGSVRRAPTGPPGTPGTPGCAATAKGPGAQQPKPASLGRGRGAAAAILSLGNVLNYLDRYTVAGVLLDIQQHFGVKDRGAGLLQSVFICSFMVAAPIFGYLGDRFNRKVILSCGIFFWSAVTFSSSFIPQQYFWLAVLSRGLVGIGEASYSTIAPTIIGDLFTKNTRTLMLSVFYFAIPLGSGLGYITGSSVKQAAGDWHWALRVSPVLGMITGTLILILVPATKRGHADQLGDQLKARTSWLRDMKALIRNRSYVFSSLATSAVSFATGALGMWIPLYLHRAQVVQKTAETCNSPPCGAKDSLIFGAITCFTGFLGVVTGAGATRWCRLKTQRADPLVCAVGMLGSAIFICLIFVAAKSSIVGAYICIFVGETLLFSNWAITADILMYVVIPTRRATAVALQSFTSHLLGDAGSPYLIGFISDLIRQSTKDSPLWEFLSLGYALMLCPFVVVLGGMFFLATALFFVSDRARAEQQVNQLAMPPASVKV
Experiment: flow cytometry

B1: 65-0810G (antibody, IgG2b, V domains shown)
VH: EVHLVESGGGLVQPGRSMKLSCTASGFTFNNYYMAWVRQAPTKGLEWVASISTGGGYTYYRDSVKGRFTISRDNTGNTLYLQMDSLRSEDTATYYCARCWELPYWGQGVMVTVSS
VL: QFVLTQPNSVSTNLGSTVKLSCRRSSGNIGNNYVNWYRQHEGRSPTTMIYRDDTRPDGVPNRFSGSIDRSSNSALLTINNVRPEDEAYYFCQSYSGSIYIFGGGTKLTVL
- binding ratio vs native type: < 0.5 ratio
